Patent US12129308B2, “MMP13 binding immunoglobulins” (Merck Patent GmbH, priority 2017, dated 2024)
Substitutions are numbered along the chain they refer to. Numbers in names are those of the source. Blank lines part the entries; values can stand above or below the molecule they belong to.

What was measured:
[1] = thermal shift assay (TSA); assay type: physicochemical; settings: for Tm at pH 7: pH 7, monovalent Nanobodies; for TSA Tm (° C.)@ pH 7: C0101517A01 2nd round sequence optimization variants
Protocol: TSA was carried out with 5 μl of purified monovalent Nanobodies in essence according to Ericsson et al. (2006 Anals of Biochemistry, 357: 289-298).
The thermal stability of the wildtype anti-MMP13 Nanobodies was investigated in a thermal shift assay (TSA).

[2] = analytical size exclusion chromatography (aSEC); assay type: physicochemical; settings: main peak
Protocol: Analytical SEC experiments were performed on an Ultimate 3000 machine (Dionex) in combination with a Biosep-SEC-3 (Agilent) column.
The tendency for multimerisation and aggregation of a selected panel of 5 representative anti-MMP13 Nanobodies was investigated by analytical size exclusion chromatography (aSEC).

SDS-Page = assay type: physicochemical
MMP13 [3] = target: T1, MMP13 (Homo sapiens, UniProt P45452); test: human MMP13 fluorogenic peptide assay; assay type: biochemical
Protocol: (§1) The setup of human, cynomolgus, rat, dog and bovine MMP13 fluorogenic peptide assays, as well as human MMP1 and MMP14 fluorogenic peptide assays is in brief as follows: activated MMP was incubated with fluorogenic peptide substrate Mca-PLGL-Dpa-AR-NH2 (R&D Systems #ES001) and a ⅕ dilution of periplasmic extract or a dilution series of purified Nanobody/positive control (total volume=20 μl in assay buffer 50 mM Tris pH 7.5, 100 mM NaCl, 10 mM CaCl2, 0.01% Tween20), for 2 h at 37° C.
(§2) The potency/efficacy of the Nanobodies was tested in the fluorogenic peptide assay, set up for different MMP13 orthologues and in the human collagenolytic assay (both assays were also used during screening, see Example 6.3). In addition, a second collagen-based assay (fluorogenic collagen assay) using higher Collagen concentrations in comparison with the collagenolytic assay was established to simulate the high Collagen concentration conditions in cartilage in which the MMP13 inhibitor is expected to be active. In this assay the fluorescence of the intact FITC-labelled Collagen substrate is low due to the reciprocal quenching effect of the fluorophores. Upon cleavage, quenching is lost and fluorescence increases.

activated MMP13 [4] = target: T2, activated MMP13 (Homo sapiens, UniProt P45452); test: human collagenolytic assay (human Collagen II); assay type: biochemical; settings: low Collagen concentration conditions
Protocol: The setup of this assay is in brief as follows: 250 ng/ml immunization grade human Collagen II (Chondrex #20052) was incubated with 5 nM activated MMP13 in 100 μl assay buffer (50 mM Tris-Cl pH 7.5, 100 mM NaCl, 10 mM CaCl2, 0.01% Tween-20). After 1.5 h incubation at 35° C., the reaction was neutralized with EDTA (10 μl of 30 mM stock). […] Remaining intact Collagen was detected via ELISA (reagents provided in Type II Collagen Detection kit (Chondrex #6009)).

activated MMP13 [5] = target: T2, activated MMP13; test: human fluorogenic collagen assay (DQ Collagen type I); assay type: biochemical; settings: Table 6.5
Protocol: In brief, the setup of this assay is as follows: 100 μg/ml DQ™ Collagen, type I from Bovine skin (fluorescein conjugate; Molecular Probes #D-12060 lot 1149062) was incubated with 10 nM activated MMP13 and a dilution series of purified Nanobody/positive control, for 2 h at 37° C. in 40 μl assay buffer (50 mM Tris-Cl pH 7.5, 100 mM NaCl, 10 mM CaCl2, 0.01% Tween-20).
as §2
In FIG. 1 the dose response curves for inhibition of activated human MMP13 when using high concentrations of bovine Collagen I (fluorogenic Collagen assay) are depicted.

human full-length MMP13 = human full-length MMP13 (Homo sapiens, UniProt P45452); test: competition ELISA against biotinylated 40E09 (epitope binning); assay type: binding; settings: 0.6 nM biotinylated 40E09
Protocol: FIG. 3: Competition ELISA with 0.6 nM biotinylated 40E09 against a panel of profile 1 and profile 2 Nanobodies on human full-length MMP13, coated via mouse anti-human MMP13 mAb (R&D Systems #MAB511). MMP13 was activated via incubation with APMA for 90 min at 37° C.
For epitope-binning a panel of monovalent Nanobodies derived from profile 1 and profile 2 were tested in a competition ELISA against the purified Nanobody 40E09 (profile 1).

rat MMP13 = rat MMP13 (Rattus norvegicus, UniProt P23097); test: adapted (more sensitive) rat fluorogenic peptide assay; assay type: biochemical; settings: 0.15 nM MMP13 instead of 1.33 nM
Protocol: as §1
As best species cross-reactive binder (cf. Example 6.4.2) Nanobody 40E09 was selected as representative of profile 1 Nanobodies. For profile 2, three Nanobodies were selected: 516G08, 62C02 and 517A01. Profile 1 and profile 2 Nanobodies were combined in a bivalent format with a 35GS linker (see Table 6.5; Nb(A)-35GS-Nb(B)). The bivalent Nanobodies were cloned into pAX205, transformed into P. pastoris, expressed and purified according to standard procedures. […] Bivalent constructs were tested in this adapted fluorogenic peptide assay as well as in the human fluorogenic collagen assay.

forced oxidation = assay type: physicochemical; settings: forced oxidation and temperature stress conditions
Protocol: Nanobody samples (1 mg/ml) were subjected for four hours at RT and in the dark to 10 mM H2O2 in PBS, in parallel with control samples without H2O2, followed by buffer switch to PBS using Zeba desalting spin columns (0.5 ml) (Thermo Scientific). Stressed and control samples were then analyzed by means of RPC on a Series 1200 or 1290 machine (Agilent Technologies) over a Zorbax 300SB-C3 column (Agilent Technologies) at 70° C. Oxidation of Nanobodies was quantified by determination of % peak area of pre-peaks occurring as a result of oxidative stress, compared to the main protein peak.
(§3) In order to assess potential PTM, forced oxidation and temperature stress was applied on the lead panel.

temperature stress = assay type: physicochemical; settings: forced oxidation and temperature stress conditions
Protocol: Nanobody samples (1-2 mg/ml) were stored in PBS for four weeks at −20° C. (negative control) 25 and 40° C. After this incubation period, Nanobodies were digested with Trypsin or LysC. Peptides of stressed and control samples were then analyzed by means of RPC on a Series 1290 machine (Agilent Technologies) over an Acquity UPLC BEH300-C18 column (Agilent Technologies) at 60° C. coupled to a Q-TOF mass spectrometer (6530 Accurate Mass Q-TOF (Agilent))
as §3

MMP13 [6] = target: T1, MMP13; test: fluorogenic peptide assay for sequence optimization variants and NNK libraries (species not stated); assay type: biochemical; settings: C0101517A01 2nd round sequence optimization variants
Protocol: as §1
However, the degree of isomerization and oxidation differed at the assessed conditions and were just below or above the applied threshold in each case. Eventually, amino acid residues 54-55, 100d-100e, M100j and 101-102 were identified as the residues responsible for the PTM. […] In order to attempt accommodating the different requirements, […] were constructed in which these residues were mutated, and subsequently screened in the fluorogenic peptide assay to evaluate possible potency losses as well as screened for biophysical properties (Tm).
Eventually, amino acid residues N100b and N101 were identified as residues sensitive to deamidation via temperature stress experiments. However, these residues are located in the CDR3 region, and potentially involved in target binding. Thus, knocking out the deamidation sites could have an impact on binding.

B1: 529C12: anti-MMP13 Nanobody, profile 2, SEQ ID NO: 9 (protein)
VHH: DVQLVESGGGLVQPGGSLRLSCVASGSIFSINAMGWYRQAPGKQRELVAAISSGGSTYYADSVKGRFTISRDNSKNTVYLQMNSLRPEDTAVYYCNAAVDASRGLPYELYYYWGQGTLVTVSS
- Tm at pH 7 [1]: 82.7 °C
- relative area [2]: 100%
- SDS-Page results (SDS-Page): 1 band

B3: 80A01: anti-MMP13 Nanobody, profile 2, SEQ ID NO: 12 (protein)
VHH: EVQLVESGGGLVQPGGSLRLSCAASGFTLAYYSIGWFRQAPGKEREGVSCISSGIDGSTYYADSVKGRFTISRDNAKNTMYLQMNNLKPEDTGVYYCAADPSHYYSEYDCGYYGMDYWGKGTLVTVSS
- Tm at pH 7 [1]: 68.6 °C
- relative area [2]: 95%
- Met-oxidation (forced oxidation): prone
- Asp-isomerization (temperature stress): prone to Asp-isomerization

B4: 516G08: anti-MMP13 Nanobody, profile 2, SEQ ID NO: 13 (protein)
VHH: DVQLVESGGGLVQPGGSLRLSCAGSGSIFRINVMAWYRQAPGKQRELVAAITSGGTTNYADSVKGRFTISRDNSKNTVYLQMNSLRPEDTAVYYCYADIGWPYVLDYDFWGQGTLVTVSS
- Tm at pH 7 [1]: 65.2 °C

B5: 517A01: anti-MMP13 Nanobody, profile 2, SEQ ID NO: 10; C010100087 is the parental of Table 6.7.1D (protein)
VHH: DVQLVESGGGLVQPGGSLRLSCAASGRTFSSYAMGWFRQAPGKEREFVAAISWSGGSTYYADSVKGRFTISRDNSKNTVYLQMNSLRPEDTAVYYCTAALAVYGPNRYRYGPVGEYNYWGQGTLVTVSS
- Tm at pH 7 [1]: 77.8 °C
- TSA Tm (° C.)@ pH 7 [1]: 78 °C
- relative area [2]: 100%
- SDS-Page results (SDS-Page): 1 band
- deamidation (temperature stress): prone to deamidation

B10: 62C02: anti-MMP13 Nanobody, profile 2, SEQ ID NO: 11 (protein)
VHH: EVQLVESGGALVRPGGSLRLSCAASGFAFSAAYMSWVRQAPGRGLEWVSSISDDGSKTYYADSVKGRFTISRDNAKNTVYLQMNNLKPDDTAVYYCNTGYGATTTRPGRYWGQGTQVTVSS
- Tm at pH 7 [1]: 76.4 °C
- relative area [2]: 100%

Now from value to molecule, other results behind:

- inhibition in the fluorogenic peptide assay (screening) (MMP13 [3]): incomplete inhibition
- efficacy / inhibition in the collagenolytic assay (activated MMP13 [4]): positive
- IC50 human fluorogenic collagen assay (activated MMP13 [5]): partial
- competition with 40E09 in competition ELISA (human full-length MMP13): compete with 40E09
- IC50 (adapted) rat fluorogenic peptide assay (rat MMP13): neutral
B2: 40E09: anti-MMP13 Nanobody, profile 1, SEQ ID NO: 1 (protein)
VHH: EVQLVESGGGSVQAGGSLRLSCAASGSTFSRYSMNWYRQAPGKQREFVAGISVGRITNYAVSVRGRFTISRDNAEGTGYLQMNSLKPEDTAVYYCNAGGLQGYWGLGTQVTVSS
- Tm at pH 7 [1]: 68.6 °C
- relative area [2]: 100%
- SDS-Page results (SDS-Page): 1 band

- IC50 (MMP13 [6]): 2.8 nM
B6: C010100648: C0101517A01 sequence optimization variant, mutations N100bQ, N101Q (protein)
VHH: B5 VHH with N106Q, N117Q
- TSA Tm (° C.)@ pH 7 [1]: 81 °C

- IC50 (MMP13 [6]): 2.1 nM
B7: C010100647: C0101517A01 sequence optimization variant, mutations N100bQ, N101V (protein)
VHH: B5 VHH with N106Q, N117V
- TSA Tm (° C.)@ pH 7 [1]: 81 °C

- IC50 (MMP13 [6]): 2.1 nM
B8: C010100650: C0101517A01 sequence optimization variant, mutations N100bS, N101V (protein)
VHH: B5 VHH with N106S, N117V
- TSA Tm (° C.)@ pH 7 [1]: 81 °C

- IC50 (MMP13 [6]): 2 nM
B9: C010100649: C0101517A01 sequence optimization variant, mutations N100bS, N101Q (protein)
VHH: B5 VHH with N106S, N117Q
- TSA Tm (° C.)@ pH 7 [1]: 79 °C
